# Assay results reported in patent US20220243288, “BIOSENSORS FOR POLYKETIDE EXTENDER UNITS AND USES THEREOF” (NORTH CAROLINA STATE UNIVERSITY, published 2022).
# T1: FapR (Bacillus subtilis, UniProt O34835 SEQ:1-188)
# T1 sequence: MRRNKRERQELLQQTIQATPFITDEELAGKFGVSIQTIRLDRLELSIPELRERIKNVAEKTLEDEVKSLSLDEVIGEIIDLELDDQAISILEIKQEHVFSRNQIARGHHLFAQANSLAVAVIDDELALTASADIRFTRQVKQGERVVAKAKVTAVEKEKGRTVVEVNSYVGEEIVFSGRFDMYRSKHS
# B1: 40 bp fapO fragment (dsDNA)
# DNA 1: CCTAGGACTATTAGTACCTAGTCTTAATTGTCCGGCATCC
# DNA 2: GGATGCCGGACAATTAAGACTAGGTACTAATAGTCCTAGG
# Target: T1, FapR
# Experiment: EMSA; near-complete shift; 2 pmol fapO, 6 pmol FapR (text also says two-fold excess); 10 mM Tris pH 7.5, 100 mM KCl, 30 C; released by 200 uM malonyl-CoA or methylmalonyl-CoA
# Settings: tags: C-terminal His6 (pET28a); chain copies: 2
# Excerpt: The saturated alkyl derivatives emCoA and bmCoA were the poorest effectors, based on the fluorescence data. This robust activity of pgmCoA is due in part to the increased rigidity of the alkyne side-chain or additional interactions of the alkynyl […] with the FapR ligand-binding site, with the […] side-chain of the nearby Phe99 (FIG. 5A). Gratifyingly, de-repression was not observed in the presence of propionyl-CoA and was indistinguishable from the (−) thioester control. To provide further evidence that FapR is de-repressed by derivatives of mCoA, FapR was tested in vitro for DNA-binding and release by electrophoretic mobility shift assay (EMSA) in the presence of mCoA or mmCoA. Using purified wild-type FapR protein, EMSA was run with a 40 bp DNA fragment containing the fapO binding site (FIG. 7). […] Incubation with the FapR-fapO complex with mmCoA achieved a similar level of de-repression as that observed with mCoA (FIG. 7).
# Electrophoretic mobility shift assay. The fapO oligonucleotides 5′-[…]-3′ (SEQ ID NO:30) and 5′-[…]-3′ (SEQ ID NO:31) were annealed per standard procedure. […] Reactions were then analyzed by electrophoresis on a 6% PAGE gel at 220 V. The gel was stained with SYBR Green I and imaged on a Typhoon FLA 7000.
binder,measurement,value
B1,binding result,binds
